Results taken from publication PMC10123104, “YbiB: a novel interactor of the GTPase ObgE” (Nucleic Acids Research, 2023).
Residue numbers refer to the chain shown, from its start. Numbers in names are those of the source. Where “and” joins values, the source holds several entries; their conditions need not be identical. Identical values can stand only once.

B1: YbiB Arg92Glu, N-terminally His6-tagged (natural protein, E. coli, UniProt P30177 1-320, looked up)
chain: MDYRKIIKEIGRGKNHARDLDRDTARGLYAHMLNGEVPDLELGGVLIALRIKGEGEAEMLGFYEAMQNHTIKLTPPAGKPMPIVIPSYNGAEKQANLTPLLAILLHKLGFPVVVHGVSEDPTRVLTETIFELMGITPTLHGGQAQAKLDEHQPVFMPVGAFCPPLEKQLAMRWRMGVRNSAHTLAKLATPFAEGEALRLSSVSHPEYIGRVAKFFSDIGGRALLMHGTEGEVYANPQRCPQINLIDREGMRVLYEKQDTAGSELLPQAKDPETTAQWIERCLAGSEPIPESLKIQMACCLVATGEAATISDGLARVNQAF
notes: no measurement of its oligomeric state is reported; also called YbiB R92E; pET28a-ybiBR92E; source: E. coli BL21 (DE3) pLysS, purified (HisTrap FF, Superdex 200); not shown: His6, N-terminal, kept
B2: YbiB (E. coli TrpD2 protein), N-terminally His6-tagged, wild type (natural protein, UniProt P30177 1-320, looked up)
chain: B1 chain with E92R
notes: YbiB, TrpD2 family protein of Escherichia coli, open reading frame amplified from BW25113 genomic DNA; cloned in pET28a (NheI/EcoRI) behind His6 and a thrombin site; its numbers there are shifted by 1; No thrombin cleavage is described; also called YbiB WT; YbiB dimer; source: E. coli BL21 (DE3) pLysS, purified (HisTrap FF, Superdex 200); not shown: His6, N-terminal, kept
B3: full-length E. coli YbiB protein, N-terminally His6-tagged (natural protein, UniProt P30177 1-320, looked up)
chain: B1 chain with E92R
notes: homodimer; No cleavage of the His6-tag is told; the pull-down names the tag on the protein; also called YbiB WT; TrpD2 protein YbiB; source: E. coli BL21 (DE3) pLysS, purified (HisTrap, SEC); not shown: His6, N-terminal, kept
B4: ObgE C-terminal peptide4 (residues 361-380 of ObgE) (peptide)
peptide: LEEIAEEDDEDWDDDWDEDD
notes: residues 375-380 (DWDEDD) are resolved in the crystal structure; also called peptide4-WW; SBL-OBGE-03; source: synthetic peptide (Fmoc SPPS, HPLC purified)
B5: peptide4-AA (variant of ObgE peptide4 with both Trp residues substituted by Ala) (peptide, UniProt P42641 361-380, looked up)
peptide: LEEIAEEDDEDADDDADEDD
notes: source: synthetic peptide (Fmoc SPPS, HPLC purified)
B6: YbiB Arg123Glu, N-terminally His6-tagged (natural protein, E. coli, UniProt P30177 1-320, looked up)
chain: B1 chain with E92R, R123E
notes: no measurement of its oligomeric state is reported; also called YbiB R123E; pET28a-ybiBR123E; source: E. coli BL21 (DE3) pLysS, purified (HisTrap FF, Superdex 200); not shown: His6, N-terminal, kept
B7: ObgE C-terminal peptide4-AA (peptide)
peptide: LEEIAEEDDEDADDDADEDD
notes: free termini (H-...-OH); also called SBL-OBGE-06; source: synthetic peptide (in-house Fmoc SPPS, HPLC purified)

What was measured:
[1] = molecular target: T1, ObgE (E. coli Obg GTPase), N-terminally His6-tagged (E. coli, UniProt P42641 1-390); experiment: ITC; MicroCal iTC200, 25°C, 20 mM HEPES pH 7.5, 150 mM NaCl, 5 mM MgCl2, 1 mM β-mercaptoethanol; ObgE or ObgE-derived peptide in the sample cell (50-75 µM), YbiB (WT or mutant) in the syringe (500 µM-1.4 mM); 'ligand in cell' function; biphasic isotherms fitted on a 'two sets of sites' model; subunit concentrations; parameters of each individual repeat; details: both partners purified
T1 construct: GTPase ObgE (Obg) of Escherichia coli, 390 residues; also called pET28a-obgE; source: E. coli BL21 (DE3) pLysS, purified (HisTrap FF, alkaline phosphatase treatment, Superdex 75), nucleotide-free; not shown: His6, N-terminal, kept
T1 sequence (P42641 whole entry): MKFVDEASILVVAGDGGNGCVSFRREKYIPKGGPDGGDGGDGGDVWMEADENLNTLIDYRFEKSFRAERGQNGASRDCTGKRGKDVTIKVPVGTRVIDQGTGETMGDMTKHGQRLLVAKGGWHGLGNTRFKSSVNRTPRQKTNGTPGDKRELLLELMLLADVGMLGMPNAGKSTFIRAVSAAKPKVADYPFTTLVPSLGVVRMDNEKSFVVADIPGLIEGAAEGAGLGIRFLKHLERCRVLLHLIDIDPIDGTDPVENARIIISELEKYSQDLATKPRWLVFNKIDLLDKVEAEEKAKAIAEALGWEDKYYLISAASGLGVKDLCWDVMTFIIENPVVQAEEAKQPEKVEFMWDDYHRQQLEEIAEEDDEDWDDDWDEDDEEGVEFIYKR

[2] = molecular target: B7; experiment: as above; details: both partners purified
[3] = molecular target: T2, N-terminally His6-tagged ObgE protein (Escherichia coli Obg) (E. coli, UniProt P42641 1-390); experiment: SEC-MALS; Superdex 200 5/150 GL increase; ObgE and YbiB alone at 1.5 mg/ml; YbiB and ObgE mixed 1:3 (20 and 60 μM); 20 mM HEPES pH 7.5, 150 mM NaCl, 5 mM MgCl2, 5% glycerol, 2 mM DTT; details: both partners purified
T2 construct: GTPase ObgE of Escherichia coli, whole protein, ORF in pET28a; monomer by SEC-MALS; nucleotide-free after alkaline phosphatase treatment; also called full-length ObgE; not shown: His6, N-terminal, kept
T2 sequence (P42641 whole entry): as above

[4] = molecular target: the molecule itself; experiment: as above
[5] = molecular target: T2, N-terminally His6-tagged ObgE protein …; experiment: SEC-SAXS; pre-formed YbiB-ObgE complex (mixed 1:3, isolated on Superdex 200, 7.6 mg/ml); 20 mM HEPES pH 7.5, 150 mM NaCl, 5 mM MgCl2, 2 mM DTT, 5% glycerol; molar mass by Bayesian inference; details: both partners purified
[6] = molecular target: T2, N-terminally His6-tagged ObgE protein …; experiment: ITC; YbiB in the syringe (500 μM to 1.4 mM) titrated into ObgE constructs or ObgE-derived peptides in the cell (50-75 μM); 25°C; 20 mM HEPES pH 7.5, 150 mM NaCl, 5 mM MgCl2, 1 mM β-mercaptoethanol; 'two sets of sites' model with 'ligand in cell' for biphasic isotherms; subunit concentrations; details: both partners purified
[7] = molecular target: B3; experiment: as above; details: both partners purified
[8] = molecular target: B2; experiment: ITC; MicroCal iTC200, 25°C, 20 mM HEPES pH 7.5, 150 mM NaCl, 5 mM MgCl2, 1 mM β-mercaptoethanol; ObgE or ObgE-derived peptide in the sample cell (50-75 µM), YbiB (WT or mutant) in the syringe (500 µM-1.4 mM); 'ligand in cell' function; biphasic isotherms fitted on a 'two sets of sites' model; subunit concentrations; parameters of each individual repeat; details: both partners purified

Binder: B1
- stoichiometry N [1]: 0.71 and 0.94 and 1.29

Binder: B2
- stoichiometry N [2]: 0.66 and 0.632 and 0.64

Binder: B3
- stoichiometry N [3]: ~2 ObgE per YbiB dimer
- stoichiometry N [4]: 2
- stoichiometry N [5]: 2 ObgE per YbiB dimer
- KD of the first (high-affinity) binding event, two sets of sites [6]: 0.022 ± 0.001 µM
- KD of the second (low-affinity) binding event, two sets of sites [6]: 5 ± 1 µM

Binder: B4
- binding result [7]: binds

Binder: B5
- Kd [7]: ~10 µM

Binder: B6
- Kd [1]: 5 µM and 4 µM and 10 µM
- stoichiometry N [1]: 1.14 and 0.99

Binder: B7
- Kd [8]: 10 µM and 15 µM
